Earlier results as cited in paper PMC3267162.
Read-outs that look alike come from different tables or passages of the source.

Legend:
LRP (Homo sapiens) = LRP (Homo sapiens) (UniProt Q07954)
PTPzeta (Homo sapiens) [1] = target: PTPzeta (Homo sapiens) (UniProt P23471)
PTPzeta (Homo sapiens) [2] = target: PTPzeta (Homo sapiens) (UniProt P23471); remark: listed apart in the source

Chain of UniProt P23471 (P23471 25-1636): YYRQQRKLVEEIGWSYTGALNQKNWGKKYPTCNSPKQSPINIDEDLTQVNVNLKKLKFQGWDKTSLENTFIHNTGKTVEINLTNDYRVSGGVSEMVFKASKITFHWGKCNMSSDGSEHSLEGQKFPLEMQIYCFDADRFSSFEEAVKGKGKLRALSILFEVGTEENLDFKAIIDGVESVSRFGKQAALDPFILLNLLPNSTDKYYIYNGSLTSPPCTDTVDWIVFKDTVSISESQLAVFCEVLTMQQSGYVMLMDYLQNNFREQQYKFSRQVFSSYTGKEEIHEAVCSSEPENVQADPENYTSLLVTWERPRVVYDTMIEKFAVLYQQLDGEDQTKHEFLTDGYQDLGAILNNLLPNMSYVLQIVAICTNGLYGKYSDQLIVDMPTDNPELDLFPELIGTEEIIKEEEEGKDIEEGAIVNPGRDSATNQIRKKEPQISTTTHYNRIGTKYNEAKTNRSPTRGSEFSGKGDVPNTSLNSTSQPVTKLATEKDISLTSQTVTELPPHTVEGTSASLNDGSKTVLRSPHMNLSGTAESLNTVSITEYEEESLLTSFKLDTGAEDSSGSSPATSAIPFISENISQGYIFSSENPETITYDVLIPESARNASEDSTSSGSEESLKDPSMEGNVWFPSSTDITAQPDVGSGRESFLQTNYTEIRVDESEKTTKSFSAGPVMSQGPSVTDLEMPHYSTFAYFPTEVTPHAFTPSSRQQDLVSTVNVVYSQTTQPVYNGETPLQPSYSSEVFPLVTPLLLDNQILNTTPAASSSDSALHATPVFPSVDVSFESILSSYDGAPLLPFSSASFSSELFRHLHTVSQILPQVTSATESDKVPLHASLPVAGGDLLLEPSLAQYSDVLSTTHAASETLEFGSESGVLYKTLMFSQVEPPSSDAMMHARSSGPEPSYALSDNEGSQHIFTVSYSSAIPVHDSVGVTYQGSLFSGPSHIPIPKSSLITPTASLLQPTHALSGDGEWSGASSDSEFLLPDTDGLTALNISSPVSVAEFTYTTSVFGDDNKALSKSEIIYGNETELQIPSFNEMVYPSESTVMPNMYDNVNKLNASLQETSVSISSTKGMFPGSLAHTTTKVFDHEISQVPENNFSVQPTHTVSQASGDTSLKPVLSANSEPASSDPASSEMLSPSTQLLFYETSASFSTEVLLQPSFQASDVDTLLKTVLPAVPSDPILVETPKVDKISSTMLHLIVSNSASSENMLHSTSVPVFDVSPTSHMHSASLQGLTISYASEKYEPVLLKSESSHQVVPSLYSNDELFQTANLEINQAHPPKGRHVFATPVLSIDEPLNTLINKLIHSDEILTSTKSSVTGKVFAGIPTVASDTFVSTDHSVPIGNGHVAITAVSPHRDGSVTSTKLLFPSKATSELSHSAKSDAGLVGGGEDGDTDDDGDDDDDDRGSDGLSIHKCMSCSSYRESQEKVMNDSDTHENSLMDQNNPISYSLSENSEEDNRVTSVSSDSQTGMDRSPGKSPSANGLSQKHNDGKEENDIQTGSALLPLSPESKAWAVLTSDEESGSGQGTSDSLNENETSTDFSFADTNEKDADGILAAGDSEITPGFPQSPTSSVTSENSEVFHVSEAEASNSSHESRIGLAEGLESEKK

- Kd (LRP (Homo sapiens)): 3.5 nM
- Kd (PTPzeta (Homo sapiens) [1]): 8.8 nM
- Kd (PTPzeta (Homo sapiens) [2]): 0.58 nM
Substance: Midkine (from UniProt P21741)
